The labels stand for the following.
T1: recombinant mouse TfR2 (mouse, UniProt Q9JKX3 103-798, limits assumed)
T1 construct: Negative control protein
T1 sequence (looked up): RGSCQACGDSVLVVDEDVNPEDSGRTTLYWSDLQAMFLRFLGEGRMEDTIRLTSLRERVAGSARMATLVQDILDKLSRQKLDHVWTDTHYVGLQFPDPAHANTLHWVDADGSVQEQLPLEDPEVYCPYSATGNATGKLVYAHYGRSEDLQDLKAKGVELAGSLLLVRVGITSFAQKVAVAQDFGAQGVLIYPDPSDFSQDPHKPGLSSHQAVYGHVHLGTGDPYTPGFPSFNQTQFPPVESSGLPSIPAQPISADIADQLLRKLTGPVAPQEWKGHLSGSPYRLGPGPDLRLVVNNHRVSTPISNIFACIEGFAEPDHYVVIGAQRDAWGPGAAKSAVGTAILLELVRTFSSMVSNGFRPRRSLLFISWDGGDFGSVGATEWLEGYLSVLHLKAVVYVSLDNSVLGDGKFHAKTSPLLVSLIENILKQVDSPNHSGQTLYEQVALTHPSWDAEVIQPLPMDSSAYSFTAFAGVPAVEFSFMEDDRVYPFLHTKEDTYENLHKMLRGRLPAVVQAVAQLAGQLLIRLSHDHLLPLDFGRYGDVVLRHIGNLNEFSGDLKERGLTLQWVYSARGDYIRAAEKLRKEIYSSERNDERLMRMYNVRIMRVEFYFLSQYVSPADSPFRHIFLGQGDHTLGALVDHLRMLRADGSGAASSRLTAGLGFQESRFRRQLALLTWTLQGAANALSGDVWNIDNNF

B1: SEQ ID NO 6 (VNAR clone displayed on phage) (VNAR)
VNAR: ARVDQTPQTITKETGESLTINCVLRDSNCALSSTYWYRKKSDSTNEESISKGGRYVETVNSGSKSFSLRINDLTVEDSGTYRCNVQWWLRCGYFKDVYGGGTVVTVNA
notes: shark VNAR domain on M13 phage; coat-protein fusion not described
B2: SEQ ID NO 47 (VNAR clone displayed on phage) (VNAR)
VNAR: ARVDQTPRSVTKETGESLTINCVLRDASYALGSTCWYRKKSGSTNEESISKGGRYVETVNSGSKSFSLRINDLTVEDGGTYRCGAAIQGFWAGRCDNLPGKCVMQVSNAAACGDGTAVTVNA
notes: as for B1
B3: SEQ ID NO 45 (VNAR clone displayed on phage) (VNAR)
VNAR: ARVDQTPRSVTKETGESLTINCVLRDASYALGSTCWYRKKSGSTNEESISKGGRYVETVNSGSKSFSLRINDLTVEDGGTYRCGVCESSFCSLPYDCDSSSAGSVIQPFGHIVSLAACGDGTAVTVNA
notes: as for B1
B4: SEQ ID NO 5 (VNAR clone displayed on phage) (VNAR)
VNAR: ARVDQTPQTITKETGESLTINCVLRDSNCALSSTYWYRKKSGSTNEENISKGGRYVETVNSGSKSFSLKINDLTVEDSGTYRCNVQKGQHLQCHVAVQDVYGGGTAVTVNA
notes: as for B1
B5: SEQ ID NO 49 (VNAR clone displayed on phage) (VNAR)
VNAR: ARVDQTPRSVTKETGESLTINCVLRDASYELGSTCWYRKKSGSTNEESISKGGRYVETVNSGSKSFSLRINDLTVEDGGTYRCGVISQYKSYTLWCDALYRSLGCECARAACGDGTAVTVNA
notes: as for B1
B6: SEQ ID NO 43 (VNAR clone displayed on phage) (VNAR)
VNAR: ARVDQTPRSVTKETGESLTINCVLRDASYALGSTCWYRKKSGSTNEESISKGGRYVETVNSGSKSFSLRINDLTVEDGGTYRCGVYGGTHQGLCGCDWQLRFSLCGDGRAACGDGTAVTVNA
notes: as for B1
B7: SEQ ID NO 42 (VNAR clone displayed on phage) (VNAR)
VNAR: ARVDQTPRSVTKETGESLTINCVLRDASYALGSTCWYRKKSGSTNEESISKGGRYVETVNSGSKSFSLRINDLTVEDGGTYRCGVCEMQLIAVDSCDHTLDDGLCGGVYAACGDGTAVTVNA
notes: as for B1
B8: SEQ ID NO 9 (VNAR clone displayed on phage) (VNAR)
chain: ARVDQTPQTITKETGESLTINCVLRDSNCALPSTYWYRKKSGSTNEARISKGGRYVETVNSGSKSFSLRINDLTVEDSGTIDARYRLSASAVLYQSYVDVYGGGTAVTVNA
notes: as for B1
B9: SEQ ID NO 48 (VNAR clone displayed on phage) (VNAR)
VNAR: ARVDQTPRSVTKETGESLTINCVLRDASYELGSTCWYRKKSGSTNEESISKGGRYVETVNSGSKSFSLRINDLTVEDGGTYRCGASLQCGNCELCDREQLQCGGQRGQLAACGDGTAVTVNA
notes: as for B1
B10: SEQ ID NO 3 (VNAR clone displayed on phage) (VNAR)
VNAR: ARVDQTPQTITKETGESLTINCVLRDNNCALSTTYWYRKKSGSTNEENISKGGRYVETVNSGSKSFSLKINDLTVEDSGTYRCNVTGYFRSTCLWRDVYGGGTAVTVNA
notes: as for B1
B11: SEQ ID NO 50 (VNAR clone displayed on phage) (VNAR)
VNAR: ARVDQTPRSVTKETGESLTINCVLRDASYALGSTCWYRKKSGSTNEESISKGGRYVETVNSGSKSFSLRINDLTVEDGGTYRCGVMNNVSQTWVRCDSQVMSQQCVQQSAACGDGTAVTVNA
notes: as for B1
B12: SEQ ID NO 4 (VNAR clone displayed on phage) (VNAR)
VNAR: ARVDQTPQTITKETGESLTINCVLRDSNCALSSTYWYRKKSGSTNEENISKGGRYVETVNSGSKSFSLKINDLTVEDSGTYRCNVQFTAALWCEAVLDVYGGGTVVTVNA
notes: as for B1
B13: SEQ ID NO 44 (VNAR clone displayed on phage) (VNAR)
VNAR: ARVDQTPRSVTKETGESLTINCVLRDASYALGSTCWYRKKSGSTNEESISKGGRYVETVNSGSKSFSLRINDLTVEDGGTYRCGVCQCWSANVWVDCDMTSTSIRMRDGSRSNARAACGDGTAVTVNA
notes: as for B1
B14: SEQ ID NO 11 (VNAR clone displayed on phage) (VNAR)
VNAR: ARVDQTPQTITKETGESLTINCVLRDSNCALPSTHWYRKKSGSTNEESISKGGRYVETVNSGSKSFSLRINDLTVEDSGTYRCKVLNFFTHTCVQVQKYDVYGGGTAVTVNA
notes: shark VNAR domain on M13 phage; coat-protein fusion not described; also called clone 11
B15: SEQ ID NO 7 (VNAR clone displayed on phage) (VNAR)
VNAR: ARVDQTPQTITKETGESLTINCVLRDSNCELSSTYWYRKKSGSTNEARISKGGRYVETVNSGSKSFSLKINDLTVEDSGTYRCNVLTTDSYDLGDVYGDGTVVTVNA
notes: shark VNAR domain on M13 phage; coat-protein fusion not described; also called clone 7
B16: SEQ ID NO 2 (VNAR clone displayed on phage) (VNAR)
VNAR: ARVDQTPQTITKETGESLTINCVLRDNNCALSTTYWYRKKSGSTNEENISKGGRYVETVNSGSKSFSLKINDLTVEDSGTYRCNVFGVDNGWWCDVYGGGTVVTVNA
notes: shark VNAR domain on M13 phage; coat-protein fusion not described; also called clone 2
B17: SEQ ID NO 12 (VNAR clone displayed on phage) (VNAR)
VNAR: ARVDQTPQTITKETGESLTINCVLRDSICALSSTHWYRKKSGSTNEESISKGGRYVETVNSGSKSFSLRINDLTVEDSGTYRCKVVRSGVGPCWADVYGGGTAVTVNA
notes: shark VNAR domain on M13 phage; coat-protein fusion not described; also called clone 12
B18: SEQ ID NO 46 (VNAR clone displayed on phage) (VNAR)
VNAR: ARVDQTPRSVTKETGESLTINCVLRDASYALGSTCWYRKKSGSTNEESISKGGRYVETVNSGSKSFSLRINDLTVEDGGTYRCGVCSDYGLQTTGQQAACGDGTAVTVNA
notes: as for B1
B19: SEQ ID NO 1 (VNAR clone displayed on phage) (VNAR)
VNAR: ARVDQTPQTITKETGESLTINCVLRDNNCALSTTYWYRKKSGSTNEENISKGGRYVETVNSGSKSFSLKINDLTVEDSGTYRCNVRDVQACGNDWVWLDVYGGGTVVTVNA
notes: shark VNAR domain on M13 phage; coat-protein fusion not described; also called clone 1
B20: SEQ ID NO 39 (VNAR clone displayed on phage) (VNAR)
chain: ARVDQTPQTITKETGESLTINCVLRDSNCALSSTLWYRTKSGSRNEESISKGGRYVETVNSGSKSFSLKINDLTVEDSGTYRCNVQGMVYDGSSFWWCDVYGDSTAVTVNA
notes: shark VNAR domain on M13 phage; coat-protein fusion not described; also called clone 39
B21: SEQ ID NO 10 (VNAR clone displayed on phage) (VNAR)
VNAR: ARVDQTPQTITKETGESLTINCVLRDSNCALSSTYWYRKKSGSTNEENISKGGRYVETVNSGSKSFSLRINDLTVEDSGTYRCNVVQYPSYNNYFWCDVYGDGTAVTVNA
notes: shark VNAR domain on M13 phage; coat-protein fusion not described; also called clone 10

The values that follow come from patent US20220031857A1 (OSSIANIX, published 2022).

In the first experiment the target is T2, recombinant mouse TfR1 (transferrin receptor 1) (mouse, UniProt Q62351 89-763).
T2 construct: Bought recombinant His-tagged protein; also called mTfR1
T2 sequence (Q62351 89-763 limits assumed): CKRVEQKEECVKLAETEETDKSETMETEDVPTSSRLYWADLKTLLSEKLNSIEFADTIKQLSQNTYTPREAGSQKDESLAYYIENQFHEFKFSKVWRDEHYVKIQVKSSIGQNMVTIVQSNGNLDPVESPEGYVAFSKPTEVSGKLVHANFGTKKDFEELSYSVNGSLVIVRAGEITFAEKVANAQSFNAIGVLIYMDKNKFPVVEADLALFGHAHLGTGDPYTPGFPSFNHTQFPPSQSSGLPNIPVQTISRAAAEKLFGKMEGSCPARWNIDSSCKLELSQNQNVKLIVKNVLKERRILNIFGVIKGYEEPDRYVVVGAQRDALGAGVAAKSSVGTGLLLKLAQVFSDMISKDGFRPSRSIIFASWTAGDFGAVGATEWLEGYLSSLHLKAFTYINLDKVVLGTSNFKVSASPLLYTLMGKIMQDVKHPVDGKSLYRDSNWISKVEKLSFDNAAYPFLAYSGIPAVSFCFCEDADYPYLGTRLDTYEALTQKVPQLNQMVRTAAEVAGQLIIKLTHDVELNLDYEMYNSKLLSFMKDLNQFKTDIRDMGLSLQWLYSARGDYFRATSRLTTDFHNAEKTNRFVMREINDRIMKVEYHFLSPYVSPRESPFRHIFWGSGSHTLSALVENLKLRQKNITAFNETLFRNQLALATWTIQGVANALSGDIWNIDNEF
The experiment is described as follows: phage ELISA.
Turning to B1, the binding result is “binds”.
On the same count and under the same terms, then B2, with “binds”; and B3, with “binds”.
The same measure, in the same setting: the value for B4 was “binds”; that for B5 was “binds”.
B6: the binding result is “binds”.
The same measure, in the same setting: the value for B7 was “binds”; that for B8 was “binds”; that for B9 was “binds”.
Same read-out and setting: then B10, with “binds”; and B11, with “binds”; and B12, with “binds”.
Still for that read-out and setting: then B13, with “binds”.

The target of a further experiment is T3, recombinant human TfR1 (transferrin receptor 1) (human, UniProt P02786 89-760).
T3 construct: Bought recombinant His-tagged protein; also called hTfR1
T3 sequence (P02786 89-760 limits assumed): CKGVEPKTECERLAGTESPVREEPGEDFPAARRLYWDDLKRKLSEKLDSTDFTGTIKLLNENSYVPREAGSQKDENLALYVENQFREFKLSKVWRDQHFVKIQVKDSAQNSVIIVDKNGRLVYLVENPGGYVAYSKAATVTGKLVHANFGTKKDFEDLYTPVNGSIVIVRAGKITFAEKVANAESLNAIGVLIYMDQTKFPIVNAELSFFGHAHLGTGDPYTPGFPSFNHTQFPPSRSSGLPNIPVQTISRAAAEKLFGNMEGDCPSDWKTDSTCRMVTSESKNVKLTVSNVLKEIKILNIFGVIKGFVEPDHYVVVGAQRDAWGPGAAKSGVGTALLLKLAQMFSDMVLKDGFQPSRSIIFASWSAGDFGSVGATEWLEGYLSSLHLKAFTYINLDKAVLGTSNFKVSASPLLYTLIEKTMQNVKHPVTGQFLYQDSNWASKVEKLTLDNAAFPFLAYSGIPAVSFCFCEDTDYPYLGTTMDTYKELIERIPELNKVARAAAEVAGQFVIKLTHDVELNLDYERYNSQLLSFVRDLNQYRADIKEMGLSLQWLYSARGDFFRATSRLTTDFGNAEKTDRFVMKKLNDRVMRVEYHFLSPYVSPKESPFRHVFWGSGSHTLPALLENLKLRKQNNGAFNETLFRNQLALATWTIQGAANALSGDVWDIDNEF
The experiment is described as follows: phage ELISA.
B1: the binding result is “binds”.
On the same count and under the same terms, the value for B2 was “binds”; that for B14 was “binds”; that for B3 was “binds”.
For the molecule B4, the binding result is reported as “binds”.
Still for that read-out and setting: the value for B5 was “binds”.
On the same count and under the same terms, then B6, with “binds”; and B7, with “binds”.
The same measure, in the same setting: the value for B8 was “binds”; that for B9 was “binds”.
Take B10: the binding result is on record as “binds”.
Still for that read-out and setting: the value for B11 was “binds”; that for B12 was “binds”.
Still for that read-out and setting: then B13, with “binds”.

A further experiment concerns the target T1, recombinant mouse TfR2. The experiment is described as follows: phage ELISA.
Take B2: the binding result was “no binding”.
As to B14, the binding result is reported as “no binding”.
Same read-out and setting: the value for B15 was “no binding”.
The same measure, in the same setting: then B3, with “no binding”.
On the same count and under the same terms, the value for B16 was “no binding”; that for B5 was “no binding”; that for B17 was “no binding”.
Consider B6, for which the binding result was “no binding”.
On the same count and under the same terms, then B18, with “no binding”.
Same read-out and setting: then B19, with “no binding”; and B20, with “no binding”.
As for B21, the binding result is “no binding”.
The same measure, in the same setting: then B7, with “no binding”.
Same read-out and setting: then B9, with “no binding”; and B11, with “no binding”.
With B13, the binding result was “no binding”.

The target in a further experiment is T4, human serum albumin (human, UniProt P02768 25-609).
T4 construct: Negative control protein; also called HSA
T4 sequence (P02768 25-609 limits assumed): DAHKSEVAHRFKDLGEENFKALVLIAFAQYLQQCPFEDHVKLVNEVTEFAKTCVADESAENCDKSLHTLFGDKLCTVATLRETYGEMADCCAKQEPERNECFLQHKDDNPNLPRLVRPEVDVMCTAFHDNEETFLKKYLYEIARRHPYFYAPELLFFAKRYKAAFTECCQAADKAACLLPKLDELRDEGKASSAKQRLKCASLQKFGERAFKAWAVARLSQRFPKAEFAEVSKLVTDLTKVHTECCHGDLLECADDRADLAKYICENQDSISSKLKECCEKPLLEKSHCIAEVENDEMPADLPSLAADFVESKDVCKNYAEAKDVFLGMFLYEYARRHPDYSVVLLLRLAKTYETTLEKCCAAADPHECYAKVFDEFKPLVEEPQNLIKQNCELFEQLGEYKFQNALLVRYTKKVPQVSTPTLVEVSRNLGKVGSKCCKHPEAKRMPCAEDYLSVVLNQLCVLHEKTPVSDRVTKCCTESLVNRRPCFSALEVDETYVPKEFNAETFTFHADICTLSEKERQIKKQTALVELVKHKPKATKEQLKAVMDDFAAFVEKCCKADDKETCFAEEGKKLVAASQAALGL
The experiment is described as follows: phage ELISA.
Regarding B1, the binding result was “no binding”.
Still for that read-out and setting: then B2, with “no binding”; and B14, with “no binding”.
The same measure, in the same setting: the value for B15 was “no binding”; that for B3 was “no binding”; that for B4 was “no binding”.
Same read-out and setting: the value for B16 was “no binding”; that for B5 was “no binding”; that for B17 was “no binding”.
Take B6: the binding result is on record as “no binding”.
On the same count and under the same terms, the value for B18 was “no binding”; that for B19 was “no binding”.
The same measure, in the same setting: the value for B20 was “no binding”; that for B21 was “no binding”.
On to B7, for which the binding result is “no binding”.
Same read-out and setting: then B8, with “no binding”; and B9, with “no binding”.
The same measure, in the same setting: then B10, with “no binding”; and B11, with “no binding”; and B12, with “no binding”.
On the same count and under the same terms, the value for B13 was “no binding”.
